In patent publication US20120100140A1 (Biogen, published 2012):
Blank lines part the entries; values can stand above or below the binder they belong to.

What was measured:
CD64 (FcγRI) [1] = biological target: T1, CD64 (FcγRI) (UniProt P12314 16-288, limits assumed); assay: solution affinity SPR: antibody titrated into CD64, inhibition of CD64 binding to immobilized IgG1 MAb; average of two titrations
T1 construct: Soluble Fc receptor used in solution; source and construct not described

CD64 (FcγRI) [2] = biological target: T1, CD64 (FcγRI); assay: solution affinity SPR: inhibition of CD64 binding to immobilized IgG1 MAb
CD16 (FcγRIIIa V158) = biological target: T2, CD16 (FcγRIIIa V158) (UniProt P08637 17-208, limits assumed); assay: solution affinity SPR: antibody titrated into CD16, inhibition of CD16 binding to immobilized IgG1 MAb; average of two titrations
T2 construct: V158 allotype as printed; source and construct not described; also called Fc gamma III receptor
T2 sequence (P08637 17-208 F176V limits assumed): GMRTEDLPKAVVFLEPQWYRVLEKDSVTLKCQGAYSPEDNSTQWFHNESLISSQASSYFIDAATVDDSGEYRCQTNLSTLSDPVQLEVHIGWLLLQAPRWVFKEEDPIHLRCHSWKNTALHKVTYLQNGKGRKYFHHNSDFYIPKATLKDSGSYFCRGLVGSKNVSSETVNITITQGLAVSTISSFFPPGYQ

T1 sequence (P12314 16-288 limits assumed): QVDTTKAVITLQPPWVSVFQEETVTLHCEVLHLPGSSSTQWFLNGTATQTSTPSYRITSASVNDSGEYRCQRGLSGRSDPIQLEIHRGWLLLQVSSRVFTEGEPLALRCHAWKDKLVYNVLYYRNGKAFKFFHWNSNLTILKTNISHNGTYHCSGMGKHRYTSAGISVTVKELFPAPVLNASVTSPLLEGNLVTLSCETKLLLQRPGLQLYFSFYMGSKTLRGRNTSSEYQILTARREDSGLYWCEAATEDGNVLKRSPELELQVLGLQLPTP

IC50 (CD64 (FcγRI) [1]): 3020 µM
B1: pEAG2300 (hu5c8, IgG4 chimeric hinge + IgG1 CH3, glycosylated) (antibody)
chain 1: QVQLVQSGAEVVKPGASVKLSCKASGYIFTSYYMYWVKQAPGQGLEWIGEINPSNGDTNFNEKFKSKATLTVDKSASTAYMELSSLRSEDTAVYYCTRSDGRNDMDSWGQGTLVTVSSASTKGPSVFPLAPCSRSTSESTAALGCLVKDYFPEPVTVSWNSGALTSGVHTFPAVLQSSGLYSLSSVVTVPSSSLGTKTYTCNVDHKPSNTKVDKRVESKYGPPCPPCPAPPVAGPSVFLFPPKPKDTLMISRTPEVTCVVVDVSQEDPEVQFNWYVDGVEVHNAKTKPREEQFNSTYRVVSVLTVLHQDWLNGKEYKCKVSNKGLPSSIEKTISKAKGQPREPQVYTLPPSRDELTKNQVSLTCLVKGFYPSDIAVEWESNGQPENNYKTTPPVLDSDGSFFLYSKLTVDKSRWQQGNVFSCSVMHEALHNHYTQKSLSLSPG
chain 2: DIVLTQSPATLSVSPGERATISCRASQRVSSSTYSYMHWYQQKPGQPPKLLIKYASNLESGVPARFSGSGSGTDFTLTISSVEPEDFATYYCQHSWEIPPTFGGGTKLEIKRTVAAPSVFIFPPSDEQLKSGTASVVCLLNNFYPREAKVQWKVDNALQSGNSQESVTEQDSKDSTYSLSSTLTLSKADYEKHKVYACEVTHQGLSSPVTKSFNRGEC

IC50 (CD64 (FcγRI) [1]): 739 µM
B2: IgG4.P T299A (hu5c8 aglycosylated IgG4.P S228P, T299A) (antibody)
chain 1: not shown
chain 2: B1 chain 2

IC50 (CD64 (FcγRI) [2]): ~8 µM
IC50 (CD16 (FcγRIIIa V158)): 564 µM
IC50 (CD64 (FcγRI) [1]): 11.2 µM
B3: EC300 (hu5c8 IgG4.P S228P, T307P, glycosylated) (antibody)
chain 1: not shown
chain 2: B1 chain 2
